The DeepSol protein solubility set

Experiment: soluble on expression in E. coli; label from the status in PepcDB or PDB records

Row | Sequence | soluble on expression in E. coli
1 | HAEVIASGRLEKCVVDGVTEELDCQEKVVVTLTVGNGQSLQTEALEFSLSCLNSPDGRCPCSCSAADPTCACRDLAAPLRVSLTKSPLWASYPLQYLSSFNWKPLEVILRPSNKVCKDGDWEDSPTCGWFSQGGVRVADSQGFCCECSSSQVWDDTFGSSKERTRANLDCDFWSDPLDILIGRKPVSAHCLTFDPQWYSGYELGAASLQFEIAITVEVPTAPSPTTATTSATPRTNNSSSANSTNSTNSPAPQFLSPPAPSTREVLHLGPSVPLASSASRLLSAKLLGDLAMYTQLPAISNQVLMVPQPPAAAAATGSPLDATLATNRSAWMLLDKTMLSMDGLACDKVGTGFSAFRYQPSGCGRAPQACLSGQLKDLWEADLARIADGRVPLYMITRFTGGSDTTLQSFSGGPLSFALPVTSHSQSLVTLSVAADGVRLVTNRSPGKITGAAVCRFAGTSCGGFEAVAARGYIYVNITNTGRLDSDYTLTVSNCSSNVRPIEARTLAVRAGSAASLDPPMELYVEDQAAAAARTCTVSLYDSVGAVTDSLTLSFYTNATQLVVKPSGGYNGTGDGAGVKRNGTDCSTACTNPIDVLCFVTKKCWSKFGR | not soluble
2 | MQLNATQLQAALPWDSLIEALKDIFVREVCSPVRHHHSINVPDKLSATLLLMPAWLEGEYLGIKQVNVFPSNNVSNIPALSSHYMLSCGKTGQPLMQLDGNELTARRTAAASALASAYLSREDARVMLMVGSGRMARRLITAHMSVRPIKIVQVWDRKEEKAQTLVTELKESGINAEVCKPDNLQAAAQQADIISCATMATSPLILGKWLKPGAHLDLVGSFTPTMRETDNAAMQLCSVFVDTRAGALSETGDLIIPIRDGAITQEKIIAEFTQLCSGEHRGRADLANPDNSITLFKSVGDSREDLAAAILAFEQCNQR | not soluble
3 | MTEAKIVDISSKDIVLREAVVEGYIKLRKETIEKIKNKEVEKGDVITVAKTAGILAAKKTPELIPMCHPIPLEFVDVEIKIEEEGLRVISTVKAHYKTGVEMEALTATSVALLTIWDMVKKYEKDENGQYPYTEIKSIRVINKIKTYDDMK | soluble
4 | MHHHHHHSSGVDLGTENLYFQSMLNTSGSGTILIDLSPDDKEFQSVEEEMQSTVREHRDGGHAGGIFNRYNILKIQKVCNKKLWERYTHRRKEVSEENHNHANERMLFHGSPFVNAIIHKGFDERHAYIGGMFGAGIYFAENSSKSNQYVYGIGGGTGCPVHKDRSCYICHRQLLFCRVTLGKSFLQFSAMKMAHSPPGHHSVTGRPSVNGLALAEYVIYRGEQAYPEYLITYQIMRPEG | soluble
5 | MKNLPIGGVWKGKVKLHSNSPAQDYFANITLNTLDPNHIDVFFPEFAHATPRVQLDLHPTGSVNGSNYAQDLTMLDMCLYDGFNGNAISYEIMLKDEGRPAAGRRDGYFSIYRQGGTTTDEGERIDYRVKMYNPETGGQIDVRNNENMVWNSINLKRVRPVVLPGIRYAVMCVPTPLTLAVDKFSVMDKQAGYYMGKLSVIFTPSLPTIN | not soluble
6 | MSSRLARFALSGYRIAGIAAYPFARPYLSYRAAKGKEDKRRRLERFGYASAERPRGPLVWFHAASVGETLALIPLIREIRKRDIFVLLTTGTVTSAELTRTRLGDDVIHQYVPLDIKIAVNRFLTYWAPDAAITAESEIWPVTMMELERRHIPQIRVNARLSDRSFDRWKARHDIAESLFSKLALVVAQSDLDAERFRDLGSWPVVISGNLKGDTDPPPCDEALLESYRKQVGNRKTWAAISTFDGEEKAAATVHAAIKSRNGQLTIIVPRHPERGDDVEAMLKGMNLSVARRSRNDVITPGTDIFLGDSIGEMGLYLRLTELAFVGRSLTAEGGQNPLEPAMLGCAVLSGAHVQNFREAYQKLIRAGGGRIIRDVEMLAKAVHYLLVNDNERYKMIDAGNRVIQDMRGALSSTVKALEPYINPLTVSAKLQPRSAIGSWLEHHHHHH | not soluble
7 | MGSDKIHHHHHHMLTKERTLQYFHEYFSEWIEIYKRGAVRPVTYQKYLMTLQRLTELSPNLKICELDKRKYQTLLNDYAKTHERQTTMDFHHHLKSAILDAMDEGLLTIDPTRKVIIKGKPVSDKKNKFLSQFELQSLLKSLNLTDKPNWDWFILLVAKTGLRFSEALALTPKDFDFECQKVKISKTWNYKNAEGGFGETKNLSSKRTIQIDIQLNTQIERLSKDLADDEPIFVQGRVFNSTVNNRLKVLCKKAGVPIISAHCLRHTHASLLIFAGVSIASIAKRLGHSSISTTQETYLHIIKELESQDNDKIMSHLSMITQ | not soluble
8 | MSLDLHLTNKLALITGSTKGIGKAIAIEMAREGTDVIINGRNEAEVTKVVKEIQTMFPDTHPQAGTADISIESQRATLLEKFPKVDILVNNMGIFEPMEYWDIDDATWEKFFTVNVLSGNALAKAYLPKMLAQDFGRIIFIASEEAVMPSGEMPQYSMTKTMNLSLAKSLSNLTVGTHVTVNTVMPGSTLTEGVEKMLEDMYADSDIPKEDWEKDFMKNHRSRSQIQRLIRPEEIGRFVTFVASPDSSSFSGEALRIDGGLVPTIEGHHHHHH | soluble
9 | MGSDKIHHHHHHMSAPDSAPGTERGHERTHFAVVGDSQDPAQATAPRAPAESITLIGIGTDGFEGLGLKAQQALQRASVVIGSWRQLNLVPDAIKAERRPWPGNTKHPDLDALFKEFLGRHVAVLASGDPLFYGVGTAMVHVLGMDRLTVIPGPSSASLACARLGWTVNRTRVVYLGQEPIETLIPIIESGAQFLVLGKDEFSTAQVATLLNELGLGETPLTVLSDLGSTDEEITQGTASHPPAAVSVLNVIAVGARTAMPKPHFEGDVSNEDLRALTVAALEPTQGQMLWTFGDIGAALACDWLRAAGNKAHAISFASMVEQSQRNARKLGVSTLSVKETLSPKTLKDIRYVQGPESASPHAIFMNKGLGIDLVPETAWMMLRPGGKLIAQASTEDNIAKLHTLQEQHGGIIKHIRIDDTDVHQWRVTKPVTPEAVN | not soluble
10 | MPDSSMKRGATLCLALAIGPGSTLADDSLGHRDNISTGLNQRQKAEMKVPPGFVEGSTLNGFIRNYYFARDNHDTPSRRDQREWAQGLMLSFRSGYTDTPIGIGLDAHAFYGLRLDGGGGSGGAGVLPLDSAGRPADSFSAAGAALKLRGLDSLLKIGDQLLENPVIASGVSRMVPQSYRGVTLKNYHFRALELDAGFVEATRLRNQSGHSHLTSGYGNGTKGGIAADRESPHIAWLGASYSAPGGSQATLYSGRLEDIWNQHYLGLSQPWRLSSQLTLTPWLHYYKTRDQGRSQLGRIDNDLYNAGLTLAGGGQSLSLSLQKVDGDTPFDFIAQNDRTFLYESNAMQYADFNGPGERSWKIQYQASLAFLAAPDWQFGAAYGRGQADLTRVDPDSAGYGYLYNPNGKNAQHWERDLSLRYAFPAGPAKGLSVTLRWATHRPGEGYTAPGNTRGNSSSDEYRVVVDYPIRLL | not soluble
11 | MKLLKVAAIAAIVFSGSALAGVVPQYGGGGGNHGGGGNNSGPNSELNIYQYGGGNSALALQADARNSDLTITQHGGGNGADVGQGSDDSSIDLTQRGFGNSATLDQWNGKDSHMTVKQFGGGNGAAVDQTASNSTVNVTQVGFGNNATAHQY | not soluble
12 | MTMNHDDRLRNRYEACRSGMQELDMLRAKHTLLIQNLRSRLPIIPGSLDDVQTREKKTRDVFLDRFSLQSVDSGISSQNTISSTRSSTPEDFKTSNRHSNIYENSSTTMNYSTFRKMSLESTHSSVSHSMQNDVEKTSFAPPVITSRSCHRGAWKTSPQRIRPKSMFDSTTSNTEYLFSKPPRHPIDLTKERRSAFTVLNQSSKRHSSIEPSLPSTLSQLSLNDEAKTPQKAEVIRWNKQKADAMFRANVVYVSSTEQPTKPAPLRFSPARSPPVRRALPIELKPTQHFAQPCKIRSPKLNTKTVFAAKPIAVRPSISPKVAQRSTWLQSQPL | not soluble
13 | ASNFEEFVLVDNGGTGDVKVAPSNFANGVAEWISSNSRSQAYKVTCSVRQSSANNRKYTVKVEVPKVATQVQGGVELPVAAWRSYMNMELTIPVFATNDDCALIVKALQGTFKTGNPIATAIAANSGIY | soluble
14 | MARKLFTSESVTEGHPDKICDQISDAVLDAIFSQDPMARVACETAVTTGLVLVTGEITTNCYVDIPKIVRSTIREIGYDRAKYGFDCDTCAVLTSIDEQSPDIAMGVNKALEAKTGEMSDEEIEAIGAGDQGMMFGFACDETPELMPMPISLAHKLAMRLSQVRKNGTLNYLRPDGKSQVTVEYDGDKPVRVDTVLISTQHGPEVDYDTIKRDVIEHVIKPVIPAELLDSKTKYLVNPTGRFVIGGPQGDSGLTGRKIIVDTYGGYARHGGGAFSGKDPTKVDRSAAYAARYVAKNIVAAGLARKCEVQLAYAIGVARPVSVRVDTFGTGIIPEEKIESLVNKYFDLRPAGIIKTLDLRRPIYKQTAAYGHFGRTDIDLPWERTDKPKS | not soluble
15 | MGSDKIHHHHHHMDQQKKIQILKDLVNIDSTNGHEEQVANYLQKLLAEHGIESEKVQYDLDRASLVSEIGSSNEKVLAFSGHMDVVDAGDVSKWKFPPFEATEHEGKLYGRGATDMKSGLAAMVIAMIELHEEKQKLNGKIRLLATVGEEIGELGAEQLTQKGYADDLDGLIIGEPSGHRIVYAHKGSINYTVKSTGKNAHSSMPEFGVNAIDNLLLFYNEVEKFVKSIDATNEILGDFIHNVTVIDGGNQVNSIPEKAQLQGNIRSIPEMDNETVKQVLVKIINKLNKQENVNLELIFDYDKQPVFSDKNSDLVHIAKSVASDIVKEEIPLLGISGTTDAAEFTKAKKEFPVIIFGPGNETPHQVNENVSIGNYLEMVDVYKRIATEFLS | not soluble
16 | GMSEENKIGTYQFVAEPFHVDFNGRLTMGVLGNHLLNCAGFHASDRGFGIATLNEDNYTWVLSRLAIELDEMPYQYEKFSVQTWVENVYRLFTDRNFAVIDKDGKKIGYARSVWAMINLNTRKPADLLALHGGSIVDYICDEPCPIEKPSRIKVTSNQPVATLTAKYSDIDINGHVNSIRYIEHILDLFPIELYQTKRIRRFEMAYVAESYFGDELSFFCDEVSENEFHVEVKKNGSEVVCRSKVIFE | soluble
17 | GMDTPANKPCIICVAITGSVPTKADNPAVPITVSEQVESTQEAFEAGAAIAHCHVRNDDGTPSSDPDRFARLTEGLHTHCPGMIVQFSTGGRSGAGQARGGMLPLKPDMASLSVGSNNFPSRVYENPPDLVDWLAAQMRSYRVTPEIEAFDLSHILRAIDMHGRGLLYGKLYVQFVMGVKNAMPADREVFDFYVRMMRTRAPQAEWCAAGIGANQLTVNEWAIAAGGHTRTGLEDNIRLDRQTLAPSNAALVRRSVELCDKYQRPVASWQQAREILGLPAAARN | soluble
18 | MSLWKNTIHSISSNLSLKNPATKDELTDIQKCLHVELPNDLYQLLQETNGIEGEYGDFIWSASKIKTENMSMRNIVDFKDLYMPFDCLLFFADGGNGDLFGYSILNGKVQRDDIYVWNHENDSRTWVALSLKTFMEWWESGKITIEGHHHHHH | soluble
19 | MGSDKIHHHHHHMHASVKFRIAEIINSTMPSAEWRLLKQIGVNEVVGTLPRDPSDWRGDQPDLPWDYAPLSSLKRRLSEYGLTLSAIEDNPPMEKIKYGVKGKEDELENVLRLIENMGRLKIGVWCYNWMAGQGWMRSRISIPDRGGAEVTGFSLSDIEEYPPPKMGKIDAETLWKNLAWFLDNVIPVAEDSGVKIAMHPDDPPLEEIRGVSRIMNNVKAFDKLIEMKRSEYNTITLCQGNFTLMTEDLPSAIRHFVRKKAVSFVHFRDVKGKKDNFIESFIDDGKTDTASCMSAYIEEGFDGIMRTDHTPTLYGDTYKVPGYSILGRLHAIGYIQGLIDGVSMV | not soluble
